B1: ZnF domain of Arabidopsis thaliana SPL5, residues 60 to 127 (domain or fragment)
chain: SRLCQVDRCTVNLTEAKQYYRRHRVCEVHAKASAATVAGVRQRFCQQCSRFHELPEFDEAKRSCRRRL

Columns and labels:
[1] = target: ZnF domain of Arabidopsis thaliana SPL5, residues 60 to 127 (Arabidopsis thaliana) (UniProt Q9S758); experiment: ITC; 200 μM SAP05 from the syringe into 20 μM SPL5^ZnF in the cell; 25 °C, 20 mM HEPES pH 7.5, 150 mM NaCl; one-site binding model
[2] = target: SAP05 H58A T60W (purified, for ITC) (Aster Yellows phytoplasma strain Witches Broom (AYWB)); experiment: ITC; SPL5^ZnF from the syringe (250 μM for wild-type SAP05, 200 μM for the SAP05–Rpn10^vWA complex or SAP05 mutants) into 20 μM partner in the cell; 25 °C, 20 mM HEPES pH 7.5, 150 mM NaCl; one-site binding model
[3] = target: SAP05–Rpn10^vWA complex (Aster Yellows phytoplasma strain Witches Broom (AYWB) | Arabidopsis thaliana) (UniProt P55034); experiment: as above
[4] = target: SAP05 D66E (purified, for ITC) (Aster Yellows phytoplasma strain Witches Broom (AYWB)); experiment: as above
[5] = target: SAP05 of Aster Yellows phytoplasma strain Witches Broom (AYWB), residues 33 to 135 (Aster Yellows phytoplasma strain Witches Broom (AYWB)); experiment: as above

Molecule | Kd [1] [nM] | stoichiometry N [1] | Kd [2] [nM] | Kd [3] [nM] | stoichiometry N [3] | Kd [4] [nM] | Kd [5] [nM]
SAP05 of Aster Yellows phytoplasma strain Witches Broom (AYWB), residues 33 to 135 (natural protein) | 450 | 1 | – | – | – | – | –
B1 | – | – | 3600 | 650 | 1 | 17700 | 520
